Laboratory results: article PMC9385479, “GTSF1 accelerates target RNA cleavage by PIWI-clade Argonaute proteins” (Nature, 2022)

What was measured:
[1] = target: MIWI (PIWIL1), mouse, 3×Flag–SNAP-tagged recombinant, loaded with a synthetic piRNA (MIWI piRISC) (mouse) (UniProt Q9JMB7)
[2] = target: T1, MIWI (PIWIL1), mouse, 3×Flag–SNAP-tagged recombinant, loaded with a synthetic piRNA (MIWI piRISC) (mouse, UniProt Q9JMB7 1-862, methylarginines (positions in Extended Data Fig. 1h)); assay: enzyme kinetics titration (pre-steady-state target-cleavage rate k_burst against GTSF1 concentration); k_burst of MIWI piRISC measured at 1–5,000 nM GTSF1 and fit to kburst=kpot[GTSF1]/(Kd+[GTSF1]); Kd is for the MIWI piRISC–target RNA ternary complex; conditions: both partners purified
T1 construct: Mouse MIWI (PIWIL1); cDNA from the Mammalian Gene Collection; not shown: 3×Flag, N-terminal, kept; SNAP, N-terminal, kept
T1 sequence (looked up): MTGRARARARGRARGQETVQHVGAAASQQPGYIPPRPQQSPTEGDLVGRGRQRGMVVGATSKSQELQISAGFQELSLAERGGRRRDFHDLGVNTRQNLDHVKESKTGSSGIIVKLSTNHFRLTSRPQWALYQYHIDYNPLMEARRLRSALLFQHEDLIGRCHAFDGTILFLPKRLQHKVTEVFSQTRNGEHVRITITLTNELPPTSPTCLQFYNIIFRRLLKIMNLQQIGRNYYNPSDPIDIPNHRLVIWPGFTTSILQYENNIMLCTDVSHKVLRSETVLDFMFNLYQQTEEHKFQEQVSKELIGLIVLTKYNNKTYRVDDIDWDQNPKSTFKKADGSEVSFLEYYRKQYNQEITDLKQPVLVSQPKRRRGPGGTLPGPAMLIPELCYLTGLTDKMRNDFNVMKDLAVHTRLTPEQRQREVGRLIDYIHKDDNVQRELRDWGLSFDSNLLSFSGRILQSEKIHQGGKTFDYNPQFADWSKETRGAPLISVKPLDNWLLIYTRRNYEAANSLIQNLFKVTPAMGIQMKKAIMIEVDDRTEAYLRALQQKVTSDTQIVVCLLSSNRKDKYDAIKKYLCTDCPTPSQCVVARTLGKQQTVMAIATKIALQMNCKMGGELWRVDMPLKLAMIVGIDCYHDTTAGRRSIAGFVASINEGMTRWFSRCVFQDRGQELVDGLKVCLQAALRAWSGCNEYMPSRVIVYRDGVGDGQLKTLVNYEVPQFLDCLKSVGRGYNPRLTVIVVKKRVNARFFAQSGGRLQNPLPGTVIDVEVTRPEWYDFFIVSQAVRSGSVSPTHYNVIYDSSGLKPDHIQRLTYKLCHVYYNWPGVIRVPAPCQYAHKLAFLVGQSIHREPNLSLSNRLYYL

BmGtsf1-like, Bombyx mori, V5SBP-tagged purified recombinant (natural protein)
amount of target RNA cleaved by MIWI piRISC with 100 nM recombinant GTSF protein (fold increase) [1]: 2.6 fold

B1: Gametocyte specific factor 1 (GTSF1), mouse, wild type, purified recombinant (natural protein, UniProt Q9DAN6 1-167, looked up)
chain: MEDTYIDSLDPEKLLQCPYDKNHQIRACRFPYHLIKCRKNHPDVANKLATCPFNARHQVPRAEISHHISSCDDKSCIEQDVVNQTRNLGQETLAESTWQCPPCDEDWDKDLWEQTSTPFVWGTASFCGNNSPANNIVMEHKSNLASGMRVPKSLPYVLPWKNNGNAQ
notes: Mouse GTSF1, tandem CHHC-type zinc-finger protein, printed mass 19,083 Da; cDNA synthesized at Twist Biosciences; Grown with 1 uM ZnSO4 (zinc-finger protein); also called wild-type GTSF1; MmGtsf1; source: E. coli Rosetta-Gami 2 (pCold-GST), purified (glutathione Sepharose, HRV3C cleavage, HiTrap Q)
Kd [2]: 8 nM

B2: GTSF1(W98A/W107A/W112A), mouse, PIWI-interacting mutant, purified recombinant (natural protein, UniProt Q9DAN6 1-167, looked up)
chain: MEDTYIDSLDPEKLLQCPYDKNHQIRACRFPYHLIKCRKNHPDVANKLATCPFNARHQVPRAEISHHISSCDDKSCIEQDVVNQTRNLGQETLAESTAQCPPCDEDADKDLAEQTSTPFVWGTASFCGNNSPANNIVMEHKSNLASGMRVPKSLPYVLPWKNNGNAQ
notes: Mouse GTSF1 with W98A, W107A and W112A; expression vector synthesized at Twist Biosciences; also called PIWI-int mutant GTSF1; source: E. coli Rosetta-Gami 2 (pCold-GST), purified (glutathione Sepharose, HRV3C cleavage, HiTrap Q)
Kd [2]: 500 nM
